From patent US7063965 (Regeneron, dated 2006)

Tests used:
[1] = target: T1, EHK-1 receptorbody (rEHK-1 ecto/hIgG1 Fc) (rat; human, UniProt P54757 27-575); assay: SPR (BIAcore), conditioned medium preincubated with soluble receptorbody before injection over immobilised TIE-2 RB
T1 construct: extracellular domain; also called EHK-1 RB; soluble EHK-1 RB

[2] = target: TIE-2 receptor on ABAE (Adult Bovine Arterial Endothelial) cells (bovine, UniProt Q06807 23-1125); assay: cell-based or functional assay
Sequence of TIE-2 receptor on ABAE (Adult Bovine Arterial Endothelial) cells (Q06807 23-1125): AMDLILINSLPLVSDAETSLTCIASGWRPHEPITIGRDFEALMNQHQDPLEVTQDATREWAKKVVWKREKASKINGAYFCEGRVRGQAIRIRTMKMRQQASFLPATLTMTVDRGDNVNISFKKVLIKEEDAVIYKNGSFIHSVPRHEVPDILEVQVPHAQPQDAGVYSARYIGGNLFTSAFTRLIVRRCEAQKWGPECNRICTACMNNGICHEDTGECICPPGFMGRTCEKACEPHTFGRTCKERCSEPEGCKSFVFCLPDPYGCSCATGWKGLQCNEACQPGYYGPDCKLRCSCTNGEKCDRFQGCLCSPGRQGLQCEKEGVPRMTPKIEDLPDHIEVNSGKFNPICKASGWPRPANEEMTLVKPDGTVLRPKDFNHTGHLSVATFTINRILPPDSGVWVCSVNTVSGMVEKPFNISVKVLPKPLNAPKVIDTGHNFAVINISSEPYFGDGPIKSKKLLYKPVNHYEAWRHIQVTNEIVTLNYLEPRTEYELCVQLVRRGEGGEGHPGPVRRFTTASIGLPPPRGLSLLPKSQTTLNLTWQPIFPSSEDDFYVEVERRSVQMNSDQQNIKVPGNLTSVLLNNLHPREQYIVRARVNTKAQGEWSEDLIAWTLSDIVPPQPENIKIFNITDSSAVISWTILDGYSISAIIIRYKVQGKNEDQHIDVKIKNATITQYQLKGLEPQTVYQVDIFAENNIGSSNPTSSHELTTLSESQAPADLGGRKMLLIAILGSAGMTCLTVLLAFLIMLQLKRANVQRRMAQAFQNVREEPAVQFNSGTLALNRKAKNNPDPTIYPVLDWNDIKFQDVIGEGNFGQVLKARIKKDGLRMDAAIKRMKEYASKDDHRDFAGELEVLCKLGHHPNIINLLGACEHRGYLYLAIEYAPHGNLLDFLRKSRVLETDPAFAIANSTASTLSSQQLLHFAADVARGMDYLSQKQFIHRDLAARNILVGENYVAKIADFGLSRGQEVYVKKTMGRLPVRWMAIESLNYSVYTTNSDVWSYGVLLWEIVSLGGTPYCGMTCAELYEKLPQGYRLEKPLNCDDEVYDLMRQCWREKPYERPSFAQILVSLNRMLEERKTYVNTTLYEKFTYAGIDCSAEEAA

[3] = target: T2, rat TIE-2 receptorbody (entire extracellular portion of the rat TIE-2 receptor fused to human IgG1 Fc) (rat; human, UniProt A0ABK0L6J5 19-740); assay: SPR (BIAcore), >50x concentrated conditioned medium over immobilised TIE-2 RB
T2 construct: extracellular domain; also called TIE-2 RB; r TIE-2 ecto/h IgG1 Fc; not shown: human immunoglobulin gamma-1 constant region (IgG1 Fc), from the hinge region to the carboxy-terminus
Protocol: Purified TIE-2 RB was covalently coupled through primary amines to the carboxymethyl dextran layer of a CM5 research grade sensor chip (Pharmacia Biosensor; Piscataway, N.J.). The sensor chip surface was activated using a mixture of N-hydroxysuccinimide (NHS) and N-ethyl-N'-(3-dimethylaminopropyl)carbodiimide (EDC), followed by immobilization of TIE-2 RB (25 µg/mL, pH 4.5) and deactivation of unreacted sites with 1.0 M ethanolamine (pH 8.5). A negative control surface of the EHK-1 receptorbody was prepared in a similar manner.
The running buffer used in the system was HBS (10 mM Hepes, 3.4 mM EDTA, 150 mM NaCl, 0.005% P20 surfactant, pH 7.4). […] Aliquots of 40 µL were injected across the immobilized surface (either TIE-2 or EHK-1) at a flow rate of 5 µL/min and the receptor binding was monitored for 8 min. The binding activity (resonance units, RU) was measured as the difference between a baseline value determined 30 s prior to the sample injection and a measurement taken at 30 s post-injection. […]
The instrument noise level is 20 RU; therefore, any binding activity with a signal above 20 RU may be interpreted as a real interaction with the receptor. […] For the same samples assayed on a EHK-1 RB immobilized surface, the measured activities were less than 35 RU. […]

T1 sequence (P54757 27-575): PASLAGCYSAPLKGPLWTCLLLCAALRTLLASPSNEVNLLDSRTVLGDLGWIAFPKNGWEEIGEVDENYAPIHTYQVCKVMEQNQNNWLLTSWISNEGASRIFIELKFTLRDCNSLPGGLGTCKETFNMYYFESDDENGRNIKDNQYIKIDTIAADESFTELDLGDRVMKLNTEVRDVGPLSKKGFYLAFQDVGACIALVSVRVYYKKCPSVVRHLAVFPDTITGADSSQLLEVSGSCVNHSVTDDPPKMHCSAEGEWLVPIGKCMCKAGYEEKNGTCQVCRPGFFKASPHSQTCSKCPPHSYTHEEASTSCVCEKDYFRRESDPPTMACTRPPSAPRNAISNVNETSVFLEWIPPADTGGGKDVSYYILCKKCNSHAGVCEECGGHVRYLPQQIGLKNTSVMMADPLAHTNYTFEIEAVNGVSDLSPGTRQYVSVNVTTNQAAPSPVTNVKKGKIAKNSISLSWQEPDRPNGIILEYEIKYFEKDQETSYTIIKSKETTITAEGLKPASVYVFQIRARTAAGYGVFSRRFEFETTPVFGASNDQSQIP

B1: TIE-2 ligand in C2C12-ras conditioned medium (ligand, mouse, UniProt O08538 20-498, looked up)
chain: SNQRRNPENGGRRYNRIQHGQCAYTFILPEHDGNCRESATEQYNTNALQRDAPHVEPDFSSQKLQHLEHVMENYTQWLQKLENYIVENMKSEMAQIQQNAVQNHTATMLEIGTSLLSQTAEQTRKLTDVETQVLNQTSRLEIQLLENSLSTYKLEKQLLQQTNEILKIHEKNSLLEHKILEMEGKHKEELDTLKEEKENLQGLVSRQTFIIQELEKQLSRATNNNSILQKQQLELMDTVHNLISLCTKEGVLLKGGKREEEKPFRDCADVYQAGFNKSGIYTIYFNNMPEPKKVFCNMDVNGGGWTVIQHREDGSLDFQRGWKEYKMGFGNPSGEYWLGNEFIFAITSQRQYMLRIELMDWEGNRAYSQYDRFHIGNEKQNYRLYLKGHTGTAGKQSSLILHGADFSTKDADNDNCMCKCALMLTGGWWFDACGPSNLNGMFYTAGQNHGKLNGIKWHYFKGPSYSLRSTTMMIRPLDF
notes: Unpurified activity in concentrated conditioned medium; also called C2C12-ras 10xCCM
**Q.** What does the source list for B1?
**A.** binding result [1]: no binding (tested: excess); TIE-2 tyrosine phosphorylation in ABAE cells (immunoprecipitation and Western blot) [2]: 100 fold; fold enhancement over background of the TIE-2 specific binding signal [3]: 4 fold
